Laboratory results: patent US7981652B2, “Modified cytochrome P450 monooxygenases” (BASF Aktiengesellschaft, priority 1999, dated 2011)

What was measured:
[1] = pNCA enzyme activity assay, substrate 15-pNCA; assay type: biochemical
Protocol: (§1) For the pNCA activity assay use was made of 8 μl of a 10 mM pNCA solution in DMSO in a disposable cell in an end volume of 1 ml. After 850 μl of Tris/HCl buffer (0.1 M, pH 8.2) and 0.1 to 0.4 nmol P450 had been added to the pNCA/DMSO solution in question, the samples were preincubated for 5 minutes before the reaction was started by adding 50 μl of an aqueous solution of […]. To determine Kcat and Km, a concentration series was established for the various pNCA substrates (regarding details of the detection method, see (12)).
(§2) A 96-well plate (Greiner, Frickenhausen, Germany) was used for carrying out the pNCA test in a microtiter plate. In a total reaction volume of 250 μl in Tris/HCl buffer (0.1 M, pH 8.2), the reaction batch contained either 60 nmol 8-pNCA, 15 nmol 10-pNCA, 15 nmol 12-pNCA or 15 nmol 15-pNCA, in each case dissolved in 2.5 μl of DMSO. After the samples had been preincubated for 5 minutes with 40 μl of P450 BM-3 samples, the reaction was started by injecting, into each well, 30 μl of a 1 mM NADPH solution. Immediately after the NADPH solution had been added, the plates were measured in a plate reader at 405 nm.

[2] = pNCA enzyme activity assay, substrate 12-pNCA; assay type: biochemical
Protocol: as §1, §2

[3] = pNCA enzyme activity assay, substrate 10-pNCA; assay type: biochemical
Protocol: as §1, §2

[4] = pNCA enzyme activity assay, substrate 8-pNCA; assay type: biochemical
Protocol: as §1, §2

[5] = Hydroxylation of lauric acid with P450 BM-3 mutants, GC analysis of products; assay type: biochemical
Protocol: The following batch was chosen to hydroxylate the fatty acids in the presence of P450 BM-3 or its mutants:
Prior to the reaction, the enzyme lyophilisate was dissolved in 1 ml of reaction buffer and first incubated for 30 minutes at 36° C. Like the addition of 2% v/v acetone, the incubation leads to an increase in activity of 60 and 75%, respectively.
After 5 minutes' incubation, 500 μl of the previously prepared NADPH solution (12.5 mg/ml) were added. The course of the reaction is monitored by absorption measurements at 340 nm, and the consumption of NADPH can be observed. Theoretically 4 ml of NADPH solution would be required for a stoichiometric conversion, however, an unduly high NADPH concentration in the reaction solution results in inactivation of the enzyme, which is why the cofactor is added in 500 μl steps.
After the reaction had ended, the solution was acidified with 5M hydrochloric acid to a pH of 2. The fatty acids or hydroxylated fatty acids precipitate during this and result in a noticeable cloudiness of the solution. Thereafter, the mixture was extracted twice with in each case 10 ml of dichloromethane and dried over sodium sulfate. After filtration through a folded filter, the dichloromethane was removed on a rotary evaporator or by evaporation with nitrogen. The white solid which remained was taken up in 2 ml of dichloromethane and used in the GC analysis.
A Fisons gas chromatograph (Fisons Instruments Mega Series, Mainz, Germany) equipped with FID was used for the analysis (Optima 5-column, internal diameter 25 m×0.25 mm, Macherey & Nagel, Düren, Germany).
For analysis, starting materials and products were silylated with MSHFBA. During this, all hydroxyl and acid groups are converted into the corresponding trimethylsilyl ethers and esters, respectively. Care must be taken that the sample is anhydrous since otherwise side reactions with the silylating agent result. 15 μl of MSHFBA were pipetted into 10 μl of the hydroxy-fatty-acid-containing dichloromethane solution and the mixture was incubated for 15 minutes at room temperature. After 25 μl of dichloromethane had been added, the GC analysis was carried out.
To this end, 1 μl of the silylated samples were injected into the gas chromatograph. Injector and detector temperature were 350° C. The following temperature programmes were used:
To determine the reaction yields, gas chromatograms of standards were recorded. […] These ion fluxes are not proportional to the quantitative ratio of starting material and product. […] The empirical formulae of the standards and of the products are identical, and the structure only differs with regard to the position of the hydroxyl group, which is why approximately identical detectable ion fluxes can be assumed for identical quantities.

[6] = from reference (12); cited from earlier work
[7] = from reference (1); cited from earlier work

B1: WT: wild-type cytochrome P450 monooxygenase BM-3 from Bacillus megaterium, SEQ ID NO:2 (protein, listed as Bacillus megaterium)
chain: TIKEMPQPKTFGELKNLPLLNTDKPVQALMKIADELGEIFKFEAPGRVTRYLSSQRLIKEACDESRFDKNLSQALKFVRDFAGDGLFTSWTHEKNWKKAHNILLPSFSQQAMKGYHAMMVDIAVQLVQKWERLNADEHIEVPEDMTRLTLDTIGLCGFNYRFNSFYRDQPHPFITSMVRALDEAMNKLQRANPDDPAYDENKRQFQEDIKVMNDLVDKIIADRKASGEQSDDLLTHMLNGKDPETGEPLDDENIRYQIITFLIAGHETTSGLLSFALYFLVKNPHVLQKAAEEAARVLVDPVPSYKQVKQLKYVGMVLNEALRLWPTAPAFSLYAKEDTVLGGEYPLEKGDELMVLIPQLHRDKTIWGDDVEEFRPERFENPSAIPQHAFKPFGNGQRACIGQQFALHEATLVLGMMLKHFDFEDHTNYELDIKETLTLKPEGFVVKAKSKKIPLGGIPSPSTEQSAKKVRKKAENAHNTPLLVLYGSNMGTAEGTARDLADIAMSKGFAPQVATLDSHAGNLPREGAVLIVTASYNGHPPDNAKQFVDWLDQASADEVKGVRYSVFGCGDKNWATTYQKVPAFIDETLAAKGAENIADRGEADASDDFEGTYEEWREHMWSDVAAYFNLDIENSEDNKSTLSLQFVDSAADMPLAKMHGAFSTNVVASKELQQPGSARSTRHLEIELPKEASYQEGDHLGVIPRNYEGIVNRVTARFGLDASQQIRLEAEEEKLAHLPLAKTVSVEELLQYVELQDPVTRTQLRAMAAKTVCPPHKVELEALLEKQAYKEQVLAKRLTMLELLEKYPACEMKFSEFIALLPSIRPRYYSISSSPRVDEKQASITVSVVSGEAWSGYGEYKGIASNYLAELQEGDTITCFISTPQSEFTLPKDPETPLIMVGPGTGVAPFRGFVQARKQLKEQGQSLGEAHLYFGCRSPHEDYLYQEELENAQSEGIITLHTAFSRMPNQPKTYVQHVMEQDGKKLIELLDQGAHFYICGDGSQMAPAVEATLMKSYADVHQVSEADARLWLQQLEEKGRYAKDVWAG
[1]
  Specific activity: 405 nmol/min/nmol P450
[2]
  Specific activity: 141 nmol/min/nmol P450
[3]
  Specific activity: 339 nmol/min/nmol P450
[4]
  Specific activity: 15 nmol/min/nmol P450
[5]; lauric acid
  positions in which the enzyme is active: only active in the positions w-1, w-2 and w-3
[5]; lauric acid (C12)
  Hydroxylation position ω-1, share of products: 38%
  Hydroxylation position ω-2, share of products: 28%
  Hydroxylation position ω-3, share of products: 34%
[6]
  conversion of 12-pNCA (ω-hydroxylation): 33%
[7]
  catalytic activity for fatty acids with a chain length of less than 12 carbon atoms: no catalytic activity
